Assay results published in PMC6128628, “Impaired hepatic amyloid-beta degradation in Alzheimer’s disease” (PLoS ONE, 2018).

Test: Degradation of fluorescein-labeled Aβ spiked into human liver homogenates (ELISA)
Type: in vitro ADME
Details: fluorescein-labeled peptide from DMSO stock diluted to 0.4 μg/ml, 5 μl added, 37°C, stopped on ice with protease inhibitor cocktail
Procedure: Frozen liver (~500 mg) was ground into a powder in liquid nitrogen with a mortar and pestle then transferred to 8 ml sucrose lysis buffer (SLB: 20 mM HEPES, 1.5 mM magnesium chloride, 10 mM potassium chloride, 40 mM sucrose, 1 mM EDTA, 2% glycerol, 0.5% sodium deoxycholate, 1% Tergitol, pH 7.9) at 4°C. The tissue was then homogenized using an Omni TH tissue grinder (Kennesaw, GA) at 4°C. The homogenates were centrifuged at 15,000 x g in a Type 50.4 Ti rotor (Beckman Coulter, Brea, CA) for 20 min at 4°C and the supernatant was collected. Total protein was determined with Pierce’s Micro BCA protein assay kit (Thermo Fisher Scientific, Waltham, MA).
Lyophilized fluorescein-labeled Aβ40 and Aβ42 peptides (FAβ, rPeptide, Bogart, GA) were reconstituted in DMSO to 1 mg/ml and stored at 4°C [22]. For degradation experiments, the stock peptides were diluted to 0.4 μg/ml (1:2500) in sucrose lysis buffer (SLB), 5 μl of either FAβ40 or FAβ42 was added to the reaction mixtures and samples were incubated at 37°C for 1 h or 2 h (for ELISA and Western experiments). In addition, two 0 h incubations were included: one liver homogenate with 5 μl of FAβ as well as a negative control sample without FAβ. Reactions were terminated by placing homogenates on ice and by adding SLB with complete protease inhibitor cocktail (PIC, Roche, Mannheim, Germany). Reactions used for Western blots were stopped by 2XLDS sample buffer (Invitrogen) containing 100 mM dithiothreitol.
All 4 sample sets were analyzed in triplicate with Aβ40 and Aβ42 ELISAs (Invitrogen; catalog # KHB3481 and KHB3441 following the manufacturer’s instructions. Similar sets of samples were analyzed for FAβ by Western blot (as described below) with an anti-fluorescein antibody (Table 2) which binds to both to both free and bound fluorescein.

Row | Substance | Aβ degraded within an hour, AD group (postmortem human liver homogenate from Alzheimer's disease subjects (n = 8) in sucrose lysis buffer pH 7.9, 1 h, Aβ40 ELISA in triplicate, p<0.05 vs ND) [%] | Aβ degraded within an hour, ND group (postmortem human liver homogenate from non-demented controls (n = 8) in sucrose lysis buffer pH 7.9, 1 h, Aβ40 ELISA in triplicate, p<0.05 vs AD) | Aβ degraded within 2 hours, AD group (postmortem human liver homogenate from Alzheimer's disease subjects (n = 8) in sucrose lysis buffer pH 7.9, 2 h, Aβ42 ELISA in triplicate, p = 0.07 vs ND) [%] | Aβ degraded within 2 hours, ND homogenates (postmortem human liver homogenate from non-demented controls (n = 8) in sucrose lysis buffer pH 7.9, 2 h, Aβ42 ELISA in triplicate, p = 0.07 vs AD) [%]
1 | Aβ40: synthetic fluorescein-labeled amyloid beta 40 peptide (rPeptide), spiked into liver homogenates | 23 | Thirty-four |  | 
2 | Aβ42: synthetic fluorescein-labeled amyloid beta 42 peptide (rPeptide), spiked into liver homogenates |  |  | 80 | 94
